In the data set the target is HA-ZFP-5475-KOX1 (Artificial). Kind of data set: ChIP with anti-HA in HEK293 cells, relative to GAPDH control; GFP-KOX and non-specific ZFP TF gave no significant enrichment. As for the experimental part:
FIG. 2A is a graph depicting repression of CHK2 expression by ZFP-5475 in cultured cells. Black bars show mRNA levels upon administration of 250 ng of plasmid. Gray bars shown mRNA levels upon administration of 62.5 ng of plasmid and the white bars show mRNA levels upon administration of 15 ng of plasmid. HEK293 cells transfected with the plasmids indicated were assayed for CHK2 mRNA by quantitative RT-PCR (TaqMan) after 72 hrs. The CHK2 mRNA levels were normalized relative to an internal control of GAPDH mRNA, and are expressed as this ratio. Charts represent data from a minimum of two independent experiments, with means and standard deviations shown. Transfection efficiency was assessed in each independent experiment via the use of a GFP expression plasmid control, in all experiments an apparent efficiency of 80-90% GFP positive cells was observed. FIG. 2B is a graph depicting binding of ZFP-5475 to its intended target site within the CHK2 promoter in vivo. […] Enrichment was quantified by RT-PCR Results are expressed as the fold-increase of the ratio to the GAPDH control relative to the results for non-transfected cells, the value of which is arbitrarily set to 1. The same samples were analyzed with primers specific for the p16 locus as a second internal control (open bars). […]

B1: CHK2 promoter ZFP-5475 target site (dsDNA)
DNA 1: ACCCGGGTTCCCCTCGGG
DNA 2: CCCGAGGGGAACCCGGGT
B1 came in with a binding signal of approximately 65 fold enrichment.
